PMC7988105
pKd: −log10 of the molar value.

Key:
[1] = target: NRXN1β (lacking SS4) Fc fusion used as bait in the pull-down; experiment: pull-down; soluble recombinant proteins mixed at 0.03 μM each in HBSS, 2 mM CaCl2, 1 mM MgCl2, 3 h, then Protein A-Sepharose 1 h, room temperature; NLGN3-His6 detected with anti-His
[2] = target: mouse NLGN3 ECD (residues 35–684) with C-terminal His6 tag (mouse) (UniProt Q8BYM5); experiment: ITC; NLGN3 ECD (20 µM) in the cell, PTPδ Ig1–Fn1 (200 µM) injected; 20 mM Tris-HCl pH 8.0, 150 mM NaCl, 25 °C; one-site model
mouse NLGN3 ECD (residues 35–684) with C-terminal His6 tag (mouse), sequence (Q8BYM5 35-684): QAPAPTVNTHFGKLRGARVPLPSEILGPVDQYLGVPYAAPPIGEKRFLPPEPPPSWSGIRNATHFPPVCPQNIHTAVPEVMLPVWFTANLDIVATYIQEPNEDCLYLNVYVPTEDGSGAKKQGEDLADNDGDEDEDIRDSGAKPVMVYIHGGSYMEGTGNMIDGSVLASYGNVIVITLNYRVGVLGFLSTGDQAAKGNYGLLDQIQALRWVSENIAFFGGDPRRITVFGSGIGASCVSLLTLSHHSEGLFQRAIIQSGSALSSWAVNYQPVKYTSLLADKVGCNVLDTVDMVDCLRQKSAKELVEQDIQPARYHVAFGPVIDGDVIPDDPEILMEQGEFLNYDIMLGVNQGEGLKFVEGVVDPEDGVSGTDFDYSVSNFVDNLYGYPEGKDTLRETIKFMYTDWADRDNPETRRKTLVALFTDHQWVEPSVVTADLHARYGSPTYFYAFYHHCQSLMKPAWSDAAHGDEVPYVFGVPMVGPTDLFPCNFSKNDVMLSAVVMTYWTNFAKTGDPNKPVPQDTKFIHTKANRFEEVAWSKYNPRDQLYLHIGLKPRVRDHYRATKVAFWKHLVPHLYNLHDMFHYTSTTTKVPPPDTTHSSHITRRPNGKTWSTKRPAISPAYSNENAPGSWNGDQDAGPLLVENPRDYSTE

[3] = target: NLGN3 ECD MF/IS mutant (M614I F615S) with His6 tag (mouse) (UniProt Q8BYM5); experiment: as above
NLGN3 ECD MF/IS mutant (M614I F615S) with His6 tag (mouse), sequence (Q8BYM5 35-684 M614I/F615S): as the sequence (Q8BYM5 35-684) above, with M580I, F581S counted along it

[4] = target: NLGN3 ECD HSE/AAA mutant (H279A S280A E281A) with His6 tag (mouse) (UniProt Q8BYM5); experiment: as above
NLGN3 ECD HSE/AAA mutant (H279A S280A E281A) with His6 tag (mouse), sequence (Q8BYM5 35-684 H279A/S280A/E281A): as the sequence (Q8BYM5 35-684) above, with H245A, S246A, E247A counted along it

[5] = target: PTPδA3B– extracellular domain fused to Fc; experiment: pull-down; conditions: parent: est. 100; read off a plot

| Substance | percent of parent [5] | also measured |
| --- | --- | --- |
| NLGN3 ECD R448C mutant (R/C; equivalent to human R451C) with His6 tag (from UniProt Q8BYM5 35-684) (domain or fragment) | – | pulldown efficiency (% of wild-type) (% of wild-type) [1]: 40 |
| PTPδA3B– Ig1–Fn1 (domain or fragment) | – | pKd [2]: 5.36; pKd [3]: 4.57; pKd [4]: 5.85 |
| mouse NLGN3 ECD (residues 35–684) with C-terminal His6 tag (from UniProt Q8BYM5) D362A; E372A; N375A | 16 % WT | – |
| mouse NLGN3 ECD (residues 35–684) with C-terminal His6 tag (from UniProt Q8BYM5) H279A; S280A; E281A | 88 % WT | – |
| mouse NLGN3 ECD (residues 35–684) with C-terminal His6 tag (from UniProt Q8BYM5) M614A; F615A | 11 % WT | – |
| mouse NLGN3 ECD (residues 35–684) with C-terminal His6 tag (from UniProt Q8BYM5) M614I; F615S | 14 % WT | – |
